{"source": "patent US10434074B2", "about": "“Peptide and small molecule agonists of EPHA and uses thereof” (CASE WESTERN RESERVE UNIVERSITY, priority 2004, dated 2019)", "molecules": {"B1": {"name": "ephrin-A1-Fc: ephrin-A1 dimerized by fusion to the heavy chain of human IgG1 (protein)", "chain": "DRHTVFWNSSNPKFRNEDYTIHVQLNDYVDIICPHYEDHSVADAAMEQYILYLVEHEEYQLCQPQSKDQVRWQCNRPSAKHGPEKLSEKFQRFTPFTLGKEFKEGHSYYYISKPIHQHEDRCLRLKVTVSGKITHSPQAHDNPQEKRLAADDPEVRVLHSIGHS", "modifications": "left off: a dimerising Fc or GST", "notes": "ephrin-A1 dimerized by fusion to the heavy chain of human IgG1"}}, "key": {"primary keratinocytes": {"system": "primary keratinocytes", "test": "Clonal growth of primary keratinocytes", "assay_type": "cell-based, mouse", "procedure": "FIGS. 43(A-C) illustrate EphA2 kinase is required for ephrin-A1-induced inhibition of ERK1/2 MAP kinase and growth suppression in primary keratinocytes. A) EphA kinase activation by ephrin-A1 in EphA2^+/+ and EphA2^+/− but not EphA2^−/− keratinocytes. Keratinocytes were isolated from newborn (P1) mice and cultured on matrigel-coated culture plates. They were stimulated with 1.0 μg/ml of ephrin-A1-Fc for 10 min. The unstimulated cells were used as control. EphA receptors including EphA2 were precipitated from the cell lysates using ephrin-A1-Fc, and were subjected to immunoblot analysis with rabbit polyclonal anti-phospho-EphA/B antibody. Membrane was stripped and blotted again for total EphA2. B) Ephrin-A1 stimulation leads to inactivation of ERK1/2 MAPK in EphA2^+/+ and EphA2^+/− but not EphA2^−/− keratinocytes. Total cell lysates were analyzed by immunoblot with the indicated antibodies. The band densities from p-ERK blot were normalized to the corresponding total ERK1 blot. The ratios of p-ERK between ephrin-A1-treated and untreated were shown in the lower panel. C). Ephrin-A1 stimulation inhibits clonal growth of EphA2^+/+ and EphA2^+/− but not EphA2^−/− keratinocytes. Primary keratinocytes were plated on 6-well plates coated with matrigel at 5,000 cells/well, and allowed to grow for 12 days in the presence of Fc (0.5 μg/ml) or ephrin-A1-Fc (1.0 μg/ml)."}, "DU-145 cells": {"system": "DU-145 cells", "test": "HGF/SF-induced cell scattering / EMT", "assay_type": "cell-based, human", "procedure": "FIGS. 4(A-B) illustrate EphA activation attenuated cell scattering induced by HGF/SF. DU-145 cells were cultured in the presence of indicated reagents. Cell morphology was recorded 24 and 48 hours after the initiation of treatments (A). Numbers of total cells and cells without contact with other cells were counted in 6-8 randomly chosen fields (B). * HGF/SF/Fc vs. HGF/SF/ephrinA1-Fc: p<10^−5.\nTumor cells scattering/detaching from primary tumors is considered as the first step in tumor metastasis. In addition to promoting cell migration and invasion, HGF/SF is known to disrupt cell-cell adhesion mediated by E-cadherin, induce epithelial-mesenchymal transition (EMT) and cause cell scattering. Therefore, we examined the effects of EphA2 activation on EMT and scattering induced by HGF/SF. DU-145 cells were treated with Fc (control) or ephrin-A1-Fc in the presence or absence of HGF/SF. Cell morphology was recorded 24 and 48 hours after the addition of stimuli (FIGS. 4A and B). In control Fc-treated cells, only about 5% of cells were found as individual cells with no direct contact with neighboring cells, while remaining cells aggregate to form colonies with typical epithelial morphology. […] Following 24 hour HGF treatment, most of cells underwent EMT characterized by detachment from each other and transformation into spindle-shaped fibroblastic morphology. […]"}, "EphA2": {"biological_target": "EphA2 (Homo sapiens, UniProt P29317)", "sequence (P29317 24-976)": "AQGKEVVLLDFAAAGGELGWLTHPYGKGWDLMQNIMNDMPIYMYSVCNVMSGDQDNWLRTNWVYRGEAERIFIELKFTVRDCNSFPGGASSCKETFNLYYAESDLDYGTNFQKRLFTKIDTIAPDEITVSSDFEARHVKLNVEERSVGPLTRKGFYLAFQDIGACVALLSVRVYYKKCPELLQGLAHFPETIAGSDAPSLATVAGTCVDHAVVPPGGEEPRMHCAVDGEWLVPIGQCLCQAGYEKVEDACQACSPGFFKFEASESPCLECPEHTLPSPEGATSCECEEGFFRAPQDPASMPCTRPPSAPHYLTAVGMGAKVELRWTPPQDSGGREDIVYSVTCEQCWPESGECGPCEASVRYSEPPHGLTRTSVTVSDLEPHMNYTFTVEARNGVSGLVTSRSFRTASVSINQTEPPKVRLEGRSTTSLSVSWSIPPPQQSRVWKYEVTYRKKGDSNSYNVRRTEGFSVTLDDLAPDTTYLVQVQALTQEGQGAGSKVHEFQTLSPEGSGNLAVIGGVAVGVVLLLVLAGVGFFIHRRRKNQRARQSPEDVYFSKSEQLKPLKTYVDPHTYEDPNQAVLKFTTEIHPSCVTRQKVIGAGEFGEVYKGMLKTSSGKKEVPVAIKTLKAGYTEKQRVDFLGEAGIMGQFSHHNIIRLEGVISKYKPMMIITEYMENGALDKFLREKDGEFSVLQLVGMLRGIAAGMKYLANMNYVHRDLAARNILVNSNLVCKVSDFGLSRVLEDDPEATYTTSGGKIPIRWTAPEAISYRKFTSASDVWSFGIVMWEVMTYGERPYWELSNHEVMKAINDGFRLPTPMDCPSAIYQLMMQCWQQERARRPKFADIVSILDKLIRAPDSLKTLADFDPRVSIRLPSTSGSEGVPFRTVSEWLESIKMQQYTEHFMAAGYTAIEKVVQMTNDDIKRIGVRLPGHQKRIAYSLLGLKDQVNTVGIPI", "test": "EphA2 activation and ERK status in DU-145 cells", "assay_type": "cell-based", "design": "endogenous in cells; host or cells: DU-145 cells", "procedure": "FIGS. 1(A-D) illustrate (A) EphA2 is the primary EphA kinase expressed on human prostate cancer cells. Cell surface proteins were labeled with membrane impermeable biotin (Method). Top panel: Saturating amount of ephrin-A1-Fc (EA1-Fc) was used to precipitate most EphA kinases. Lower panel: EphA2 was first immunodepleted from cell lysates with an EphA2-specific antibody. Saturating amount of ephrin-A1-Fc was then added to the EphA2-depleted cell lysates to precipitate other members of EphA kinases. The precipitates were subject immunoblot with HRP-labeled avidin. (B) Expression of EphA2, but not other EphA kinases and ephrin-As, is elevated in cell lines derived from more malignant prostate cancer. Total cellular proteins were immunoblotted with the indicated antibodies. (C) Immunofluorescence staining of EphA2. Human prostate cancer cells grown on cover slip were stained with anti-EphA2 antibody. Texas-Red labeled secondary was used to visualize the bound primary antibody. […] To determine the ERK activation status, total cell lysates were analyzed by immunoblot using anti-phospho ERK (p-ERK) antibody. […]\nCells cultured in 6 well plates at 70-80% confluence were stimulated with 0.5 μg/ml Fc, 1 μg/ml epnrinA1-Fc or 20 ng/ml HGF/SF or their combinations as indicated. […] For quantitative analysis, band densities were measured using KODAK 1D imagine analysis software (Eastman Kodak Company)."}, "Akt": {"system": "Akt", "test": "Akt activities in PC-3 cells", "assay_type": "cell-based, human"}}}
{"molecule": "B1", "values": [{"measurement": "clonal growth", "setting": "primary keratinocytes; EphA2 knockout keratinocytes", "result": "resistant to ephrin-A1-induced growth inhibition"}, {"measurement": "clonal growth", "setting": "primary keratinocytes; wild type and heterozygous, 1.0 μg/ml, 12 days", "result": "suppressed the growth of wild type and heterozygous keratinocytes"}, {"measurement": "fraction of scattered cells", "setting": "DU-145 cells; 24 hour HGF treatment, 95% with HGF and Fc", "result": 15, "unit": "%"}, {"measurement": "cell morphology", "setting": "DU-145 cells; without HGF/SF", "result": "more compact cobblestone morphology"}, {"measurement": "ERK1/2 activity", "setting": "EphA2", "result": "reduced"}, {"measurement": "EphA2 activation, time course", "setting": "EphA2", "result": "readily occurred in two minutes"}, {"measurement": "Akt activities", "setting": "Akt", "result": "inhibition of Akt activities"}]}
